Source: patent publication US20230226223A1 (SOLA BIOSCIENCES, published 2023)

Target: GFP-HTTQ74 reporter construct
Experiment: cell-based or functional assay

Binder	% Aggregation (relative to Q74 alone), filter trap assay [%]
Construct 3, QBP1-JB1 (designed binder) MGKPIPNPLLGLDSTGTGSSNWKWWPGIFDEFMGKDYYQTLGLARGASDEEIKRAYRRQALRYHPDKNKEPGAEEKFKEIAEAYDVLSDPRKREIFDRYGEEGLKGSDIAAALE	67.5
Construct 7, QBP1-JB1-2XQBP1 (designed binder) MGKPIPNPLLGLDSTGTGSSNWKWWPGIFDEFMGKDYYQTLGLARGASDEEIKRAYRRQALRYHPDKNKEPGAEEKFKEIAEAYDVLSDPRKREIFDRYGEEGLKGSDIGGGGSGGGGSGGGGSGGGGSAAASNWKWWPGIFDGLESNWKWWPGIFD	23
Construct 5, JB1-3XQBP1 (designed binder) MGKDYYQTLGLARGASDEEIKRAYRRQALRYHPDKNKEPGAEEKFKEIAEAYDVLSDPRKREIFDRYGEEGLKGSGGGGSGGGGSGGGGSGGGGSGSSNWKWWPGIAAASNWKWWPGILESNWKWWPGIFD	41.1
Construct 2, JB1-QBP1 (designed binder) MGKDYYQTLGLARGASDEEIKRAYRRQALRYHPDKNKEPGAEEKFKEIAEAYDVLSDPRKREIFDRYGEEGLKGSDIGGGGSGGGGSGGGGSGGGGSAAASNWKWWPGIFDGLE	75.9
Construct 6, QBP1-JB1-QBP1 (designed binder) MGKPIPNPLLGLDSTGTGSSNWKWWPGIFDEFMGKDYYQTLGLARGASDEEIKRAYRRQALRYHPDKNKEPGAEEKFKEIAEAYDVLSDPRKREIFDRYGEEGLKGSDIGGGGSGGGGSGGGGSGGGGSAAASNWKWWPGIFDGLE	5.62
Construct 1, JB1 (other) MGKDYYQTLGLARGASDEEIKRAYRRQALRYHPDKNKEPGAEEKFKEIAEAYDVLSDPRKREIFDRYGEEGLKGSDIAAALESRDYKDDDDK	127

Target: GFP-HTTQ74 reporter construct
Experiment: cell-based or functional assay
Remark: another data set of the same source

Binder	Reduction of Aggregation (%), filter trap assay [%]
Construct 55, QBP1-JB1-QBP1 (2) (designed binder) MSNWKWWPGIFDLEGKDYYQTLGLARGASDEEIKRAYRRQALRYHPDKNKEPGAEEKFKEIAEAYDVLSDPRKREIFDRYGEEGLKGSGGGSSNWKWWPGIFDLE	9.45
Construct 35, JB1-QBP1-QBP1 (2) (designed binder) MGKDYYQTLGLARGASDEEIKRAYRRQALRYHPDKNKEPGAEEKFKEIAEAYDVLSDPRKREIFDRYGEEGLKGSSNWKWWPGIFDEAAAKSNWKWWPGIFDLE	97.9
Construct 36, JB1-QBP1-QBP1 (3) (designed binder) MGKDYYQTLGLARGASDEEIKRAYRRQALRYHPDKNKEPGAEEKFKEIAEAYDVLSDPRKREIFDRYGEEGLKGSSNWKWWPGIFDGGGGSSNWKWWPGIFDLE	95.7
Construct 57, JB1-QBP1-JB1-QBP1 (designed binder) MGKDYYQTLGLARGASDEEIKRAYRRQALRYHPDKNKEPGAEEKFKEIAEAYDVLSDPRKREIFDRYGEEGLKGSGSSNWKWWPGIFDEFMGKDYYQTLGLARGASDEEIKRAYRRQALRYHPDKNKEPGAEEKFKEIAEAYDVLSDPRKREIFDRYGEEGLKGSGGGGSGGGGSGGGGSGGGGSAAASNWKWWPGIFDLESRGDYKDDDDK	94.1
Construct 45, JB1-QBP1-QBP1 (12) (designed binder) MGKDYYQTLGLARGASDEEIKRAYRRQALRYHPDKNKEPGAEEKFKEIAEAYDVLSDPRKREIFDRYGEEGLKGSGGGGSSNWKWWPGIFDGGGGSGGGGSSNWKWWPGIFDLE	91.1
Construct 47, JB1-QBP1-QBP1 (14) (designed binder) MGKDYYQTLGLARGASDEEIKRAYRRQALRYHPDKNKEPGAEEKFKEIAEAYDVLSDPRKREIFDRYGEEGLKGSEAAAKSNWKWWPGIFDGGGGSGGGGSSNWKWWPGIFDLE	99.7
Construct 46, JB1-QBP1-QBP1 (13) (designed binder) MGKDYYQTLGLARGASDEEIKRAYRRQALRYHPDKNKEPGAEEKFKEIAEAYDVLSDPRKREIFDRYGEEGLKGSGGGGSSNWKWWPGIFDEAAAKEAAAKSNWKWWPGIFDLE	100
Construct 43, JB1-QBP1-QBP1 (10) (designed binder) MGKDYYQTLGLARGASDEEIKRAYRRQALRYHPDKNKEPGAEEKFKEIAEAYDVLSDPRKREIFDRYGEEGLKGSSNWKWWPGIFDGGGGSGGGGSSNWKWWPGIFDLE	99.5
Construct 44, JB1-QBP1-QBP1 (11) (designed binder) MGKDYYQTLGLARGASDEEIKRAYRRQALRYHPDKNKEPGAEEKFKEIAEAYDVLSDPRKREIFDRYGEEGLKGSSNWKWWPGIFDEAAAKEAAAKSNWKWWPGIFDLE	99.6
Construct 54, QBP1-JB1-QBP1 (1) (designed binder) MSNWKWWPGIFDGKDYYQTLGLARGASDEEIKRAYRRQALRYHPDKNKEPGAEEKFKEIAEAYDVLSDPRKREIFDRYGEEGLKGSSNWKWWPGIFDGDYKDDDDK	0
Construct 48, JB1-QBP1-QBP1 (15) (designed binder) MGKDYYQTLGLARGASDEEIKRAYRRQALRYHPDKNKEPGAEEKFKEIAEAYDVLSDPRKREIFDRYGEEGLKGSEAAAKSNWKWWPGIFDEAAAKEAAAKSNWKWWPGIFDLE	100
Construct 41, JB1-QBP1-QBP1 (8) (designed binder) MGKDYYQTLGLARGASDEEIKRAYRRQALRYHPDKNKEPGAEEKFKEIAEAYDVLSDPRKREIFDRYGEEGLKGSEAAAKSNWKWWPGIFDEAAAKSNWKWWPGIFD	91.1
Construct 42, JB1-QBP1-QBP1 (9) (designed binder) MGKDYYQTLGLARGASDEEIKRAYRRQALRYHPDKNKEPGAEEKFKEIAEAYDVLSDPRKREIFDRYGEEGLKGSEAAAKSNWKWWPGIFDGGGGSSNWKWWPGIFD	87
Construct 53, Flag-QBP1-JB1-QBP1-Flag (designed binder) MDYKDDDDKGGTGSSNWKWWPGIFDEFMGKDYYQTLGLARGASDEEIKRAYRRQALRYHPDKNKEPGAEEKFKEIAEAYDVLSDPRKREIFDRYGEEGLKGSGGGGSGGGGSGGGGSGGGGSAAASNWKWWPGIFDLESRGDYKDDDDK	79.9
Construct 49, JB1-QBP1-QBP1 (16) (designed binder) MGKDYYQTLGLARGASDEEIKRAYRRQALRYHPDKNKEPGAEEKFKEIAEAYDVLSDPRKREIFDRYGEEGLKGSGGGGSGGGGSGGGGSGGGGSAAASNWKWWPGIFDLEGGGGSSRAAASNWKWWPGIFDLE	82.5
Construct 50, JB1-QBP1-QBP1 (17) (designed binder) MGKDYYQTLGLARGASDEEIKRAYRRQALRYHPDKNKEPGAEEKFKEIAEAYDVLSDPRKREIFDRYGEEGLKGSGGGGSGGGGSGGGGSGGGGSAAASNWKWWPGIFDLEEAAAKSRAAASNWKWWPGIFDLE	90.9
Construct 51, JB1-QBP1-QBP1 (18) (designed binder) MGKDYYQTLGLARGASDEEIKRAYRRQALRYHPDKNKEPGAEEKFKEIAEAYDVLSDPRKREIFDRYGEEGLKGSEAAAKSNWKWWPGIFDLEGGGGSSNWKWWPGIFDLE	96.5
Construct 52, JB1-QBP1-QBP1 (19) (designed binder) MGKDYYQTLGLARGASDEEIKRAYRRQALRYHPDKNKEPGAEEKFKEIAEAYDVLSDPRKREIFDRYGEEGLKGSGGGGSSNWKWWPGIFDLEGGGGSSNWKWWPGIFDLE	96.9
Construct 37, JB1-QBP1-QBP1 (4) (designed binder) MGKDYYQTLGLARGASDEEIKRAYRRQALRYHPDKNKEPGAEEKFKEIAEAYDVLSDPRKREIFDRYGEEGLKGSGGGGSSNWKWWPGIFDEAAAKSNWKWWPGIFDLE	97
Construct 38, JB1-QBP1-QBP1 (5) (designed binder) MGKDYYQTLGLARGASDEEIKRAYRRQALRYHPDKNKEPGAEEKFKEIAEAYDVLSDPRKREIFDRYGEEGLKGSGGGGSSNWKWWPGIFDGGGGSSNWKWWPGIFDLE	96.9
Construct 39, JB1-QBP1-QBP1 (6) (designed binder) MGKDYYQTLGLARGASDEEIKRAYRRQALRYHPDKNKEPGAEEKFKEIAEAYDVLSDPRKREIFDRYGEEGLKGSEAAAKSNWKWWPGIFDEAAAKSNWKWWPGIFDLE	98.1
Construct 40, JB1-QBP1-QBP1 (7) (designed binder) MGKDYYQTLGLARGASDEEIKRAYRRQALRYHPDKNKEPGAEEKFKEIAEAYDVLSDPRKREIFDRYGEEGLKGSEAAAKSNWKWWPGIFDGGGGSSNWKWWPGIFDLE	96
Construct 56, JB1-JB1-QBP1 (designed binder) MGKDYYQTLGLARGASDEEIKRAYRRQALRYHPDKNKEPGAEEKFKEIAEAYDVLSDPRKREIFDRYGEEGLKGSGSEFMGKDYYQTLGLARGASDEEIKRAYRRQALRYHPDKNKEPGAEEKFKEIAEAYDVLSDPRKREIFDRYGEEGLKGSGGGGSGGGGSGGGGSGGGGSAAASNWKWWPGIFDLESRGDYKDDDDK	68.5

Target: GFP-HTTQ74 reporter construct
Experiment: cell-based or functional assay
Remark: another data set of the same source

Binder	% Aggregation (relative to Q74 alone), filter trap assay [%]
Construct 9, JB1(20-31)-2XQBP1 (designed binder) MGTGSEFIKRAYRRQALRYDIGGGGSGGGGSGGGGSGGGGSAAASNWKWWPGIFDGLESNWKWWPGIFD	91
Construct 8, JB1(P33Q)-2XQBP1 (designed binder) MGKDYYQTLGLARGASDEEIKRAYRRQALRYHQDKNKEPGAEEKFKEIAEAYDVLSDPRKREIFDRYGEEGLKGSDIGGGGSGGGGSGGGGSGGGGSAAASNWKWWPGIFDGLESNWKWWPGIFD	93
Construct 10, JB1(19-43)-2XQBP1 (designed binder) MGTGSEFEIKRAYRRQALRYHPDKNKEPGAEEDIGGGGSGGGGSGGGGSGGGGSAAASNWKWWPGIFDGLESNWKWWPGIFD	91
